Experimental data as given in PMC8677033.

Target: HIS-RBS1_1412 WT (UniProt Q8TEQ6 1297-1412)
Assay: EMSA

HIS-RBS1_1412 WT, sequence (Q8TEQ6 1297-1412): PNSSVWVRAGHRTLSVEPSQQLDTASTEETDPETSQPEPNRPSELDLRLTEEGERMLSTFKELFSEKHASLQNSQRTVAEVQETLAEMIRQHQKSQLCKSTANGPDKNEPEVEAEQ

UUUUU (ssRNA) [U(5)]: no binding.
